For two substances, Kd results are on record in article doi:10.1101/2021.12.07.471543.

As usually defined, the Kd is the free concentration of one partner at which half of the binding sites on the other are occupied at equilibrium, for simple one-to-one binding. High values mean weaker binding, low ones tighter binding.

The target of the assay is C4BPα1-2, a fragment of human C4b-binding protein (C4BP) (human). The assay can be described thus: ITC. Background: Isothermal titration calorimetry measures the heat released or taken up as one component is titrated into another.

On to “M2G (M2_(53)G), M2 aa 53-86 fused at its C-terminus to a GCN4 coiled-coil sequence”, for which the Kd turned out to be 4 µM.

Regarding “Intact M2 protein (mature form), Streptococcus pyogenes strain AP2 (natural protein)”, the Kd came out at 4 µM.
